Laboratory results published in IntAct's records for PubMed 22653727.

B1: Circadian locomoter output cycles protein kaput (Mus musculus), O08785 (parent)
chain: MVFTVSCSKMSSIVDRDDSSIFDGLVEEDDKDKAKRVSRNKSEKKRRDQFNVLIKELGSMLPGNARKMDKSTVLQKSIDFLRKHKETTAQSDASEIRQDWKPTFLSNEEFTQLMLEALDGFFLAIMTDGSIIYVSESVTSLLEHLPSDLVDQSIFNFIPEGEHSEVYKILSTHLLESDSLTPEYLKSKNQLEFCCHMLRGTIDPKEPSTYEYVRFIGNFKSLTSVSTSTHNGFEGTIQRTHRPSYEDRVCFVATVRLATPQFIKEMCTVEEPNEEFTSRHSLEWKFLFLDHRAPPIIGYLPFEVLGTSGYDYYHVDDLENLAKCHEHLMQYGKGKSCYYRFLTKGQQWIWLQTHYYITYHQWNSRPEFIVCTHTVVSYAEVRAERRRELGIEESLPETAADKSQDSGSDNRINTVSLKEALERFDHSPTPSASSRSSRKSSHTAVSDPSSTPTKIPTDTSTPPRQHLPAHEKMTQRRSSFSSQSINSQSVGPSLTQPAMSQAANLPIPQGMSQFQFSAQLGAMQHLKDQLEQRTRMIEANIHRQQEELRKIQEQLQMVHGQGLQMFLQQSNPGLNFGSVQLSSGNSNIQQLTPVNMQGQVVPANQVQSGHISTGQHMIQQQTLQSTSTQQSQQSVMSGHSQQTSLPSQTPSTLTAPLYNTMVISQPAAGSMVQIPSSMPQNSTQSATVTTFTQDRQIRFSQGQQLVTKLVTAPVACGAVMVPSTMLMGQVVTAYPTFATQQQQAQTLSVTQQQQQQQQQPPQQQQQQQQSSQEQQLPSVQQPAQAQLGQPPQQFLQTSRLLHGNPSTQLILSAAFPLQQSTFPPSHHQQHQPQQQQQLPRHRTDSLTDPSKVQPQ

Tests used:
Conditions in all cases: with Bmal1, Q9WTL8-4
[1] = variants of: B1
[2] = variants of: B1; remark: listed apart in the source
[3] = variants of: B1; remark: listed apart in the source

Bmal1, Q9WTL8-4, sequence (Q9WTL8 other isoform, or with tags, fused parts or gaps): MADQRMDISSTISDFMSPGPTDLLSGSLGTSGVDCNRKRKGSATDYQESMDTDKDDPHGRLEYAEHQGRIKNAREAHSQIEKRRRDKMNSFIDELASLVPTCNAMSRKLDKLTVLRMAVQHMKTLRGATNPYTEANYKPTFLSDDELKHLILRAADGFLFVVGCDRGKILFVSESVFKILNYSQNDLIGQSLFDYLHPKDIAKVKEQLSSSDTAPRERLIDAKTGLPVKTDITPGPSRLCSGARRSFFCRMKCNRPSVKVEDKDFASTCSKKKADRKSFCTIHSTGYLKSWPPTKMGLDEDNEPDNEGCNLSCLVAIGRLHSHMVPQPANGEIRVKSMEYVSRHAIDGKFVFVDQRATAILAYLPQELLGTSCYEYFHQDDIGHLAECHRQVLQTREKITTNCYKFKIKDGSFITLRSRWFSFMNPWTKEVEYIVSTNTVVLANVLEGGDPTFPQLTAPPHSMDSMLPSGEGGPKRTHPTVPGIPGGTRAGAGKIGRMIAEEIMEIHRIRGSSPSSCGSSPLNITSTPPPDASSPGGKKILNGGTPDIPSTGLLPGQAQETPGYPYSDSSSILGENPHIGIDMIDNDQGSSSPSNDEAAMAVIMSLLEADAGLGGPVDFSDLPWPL

Variant | effect of a mutation on the interaction [1] | effect of a mutation on the interaction [2] | effect of a mutation on the interaction [3]
L57E;L113E;W284A | disrupting interaction strength | disrupting interaction strength | –
W284A | disrupting interaction strength | – | decreasing interaction strength
F122D | with no effect | – | –
L113E | with no effect | – | –
L74E | disrupting interaction strength | decreasing interaction strength | –
L57E | with no effect | decreasing interaction strength | –
V315R | with no effect | decreasing interaction strength | –
